Biological target: Fbxl17 (UniProt Q9UF56)
Experiment: HA-Sufu IP, Myc-Fbxl17 blot
Conditions: reference: Sufu wild type; sites S342,S346

Sufu (from UniProt Q9UMX1) Sufu S342A/S346A
binding against the reference: stronger

Source: publication PMC4884786
